Article PMC6730887, “FKBP51 and FKBP12.6—Novel and tight interactors of Glomulin” (PLoS ONE, 2019)
Changes are numbered by the printed parent chain. In names and notes the source's numbering stands. Like-named read-outs stand apart in the source and are kept apart here.

T1: GST-Glmn (Glomulin) (UniProt Q92990 1-594)
T1 chain: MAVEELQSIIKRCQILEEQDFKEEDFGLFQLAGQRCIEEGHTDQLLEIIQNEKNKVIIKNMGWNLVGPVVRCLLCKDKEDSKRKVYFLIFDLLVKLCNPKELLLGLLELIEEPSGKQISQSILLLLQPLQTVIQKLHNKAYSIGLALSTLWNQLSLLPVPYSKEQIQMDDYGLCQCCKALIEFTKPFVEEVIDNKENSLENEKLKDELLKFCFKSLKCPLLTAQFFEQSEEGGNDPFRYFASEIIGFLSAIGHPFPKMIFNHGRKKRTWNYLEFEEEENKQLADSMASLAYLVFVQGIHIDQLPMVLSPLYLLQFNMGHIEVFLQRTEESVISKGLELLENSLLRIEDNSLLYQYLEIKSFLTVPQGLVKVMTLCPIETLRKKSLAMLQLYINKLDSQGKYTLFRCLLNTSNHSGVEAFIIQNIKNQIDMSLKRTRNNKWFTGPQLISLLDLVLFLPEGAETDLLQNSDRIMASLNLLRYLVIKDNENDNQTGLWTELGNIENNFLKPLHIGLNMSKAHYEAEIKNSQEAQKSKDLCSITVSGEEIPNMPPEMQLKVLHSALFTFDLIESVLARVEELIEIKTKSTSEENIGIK

T2: GST-Glmn (Glomulin) (UniProt Q92990 1-594)
T2 construct: Glomulin (Glmn); GST is detected by the anti-GST-Tb cryptate antibody in the HTRF assays; also called GST-tagged Glmn; FAP48; source: E. coli BL21(DE3), purified (glutathione beads, SEC)
T2 sequence (looked up): T1 chain

B1: His-FKBP51FK1 (aa16-140) (domain or fragment)
chain: ATVAEQGEDITSKKDRGVLKIVKRVGNGEETPMIGDKVYVHYKGKLSNGKKFDSSHDRNEPFVFSLGKGQVIKAWDIGVATMKKGEICHLLCKPEYAYGSAGSLPKIPSNATLFFEIELLDFKGE
B2: His-FKBP51-Strep (full length) (natural protein, UniProt Q13451 1-457, looked up)
chain: MTTDEGAKNNEESPTATVAEQGEDITSKKDRGVLKIVKRVGNGEETPMIGDKVYVHYKGKLSNGKKFDSSHDRNEPFVFSLGKGQVIKAWDIGVATMKKGEICHLLCKPEYAYGSAGSLPKIPSNATLFFEIELLDFKGEDLFEDGGIIRRTKRKGEGYSNPNEGATVEIHLEGRCGGRMFDCRDVAFTVGEGEDHDIPIGIDKALEKMQREEQCILYLGPRYGFGEAGKPKFGIEPNAELIYEVTLKSFEKAKESWEMDTKEKLEQAAIVKEKGTVYFKGGKYMQAVIQYGKIVSWLEMEYGLSEKESKASESFLLAAFLNLAMCYLKLREYTKAVECCDKALGLDSANEKGLYRRGEAQLLMNEFESAKGDFEKVLEVNPQNKAARLQISMCQKKAKEHNERDRRIYANMFKKFAEQDAKEEANKAMGKKTSEGVTNEKGTDSQAMEEEKPEGHV
notes: FKBP51, full length; in pProEx-HTA, used as previously described; also called FKBP51FL; full-length FKBP51; source: E. coli BL21(DE3), purified (Ni-NTA, SEC)
B3: His-FKBP51FK1 (FD67/68DV) (domain or fragment)
chain: MTTDEGAKNNEESPTATVAEQGEDITSKKDRGVLKIVKRVGNGEETPMIGDKVYVHYKGKLSNGKKDVSSHDRNEPFVFSLGKGQVIKAWDIGVATMKKGEICHLLCKPEYAYGSAGSLPKIPSNATLFFEIELLDFKGE
B4: His-FKBP51FK1 (F67V) (domain or fragment)
chain: B3 chain with D67V, V68D
B5: His-FKBP51FK1 (1-140) (domain or fragment)
chain: B3 chain with D67F, V68D
B6: His-FKBP52FK1 (domain or fragment)
chain: GDRVFVHYTGWLLDGTKFDSSLDRKDKFSFDLGKGEVIKAWDIAIATMKVGEVCHITCKPEYAYGSAGSPPKIPPNATLVFEVELFEFK
B7: His-FKBP52-Strep (full length) (natural protein, UniProt Q02790 1-459, looked up)
chain: MTAEEMKATESGAQSAPLPMEGVDISPKQDEGVLKVIKREGTGTEMPMIGDRVFVHYTGWLLDGTKFDSSLDRKDKFSFDLGKGEVIKAWDIAIATMKVGEVCHITCKPEYAYGSAGSPPKIPPNATLVFEVELFEFKGEDLTEEEDGGIIRRIQTRGEGYAKPNEGAIVEVALEGYYKDKLFDQRELRFEIGEGENLDLPYGLERAIQRMEKGEHSIVYLKPSYAFGSVGKEKFQIPPNAELKYELHLKSFEKAKESWEMNSEEKLEQSTIVKERGTVYFKEGKYKQALLQYKKIVSWLEYESSFSNEEAQKAQALRLASHLNLAMCHLKLQAFSAAIESCNKALELDSNNEKGLFRRGEAHLAVNDFELARADFQKVLQLYPNNKAAKTQLAVCQQRIRRQLAREKKLYANMFERLAEEENKAKAEASSGDHPTDTEMKEEQKSNTAGSQSQVETEA
notes: FKBP52, full length; in pProEx-HTA, used as previously described; also called FKBP52FL; full-length FKBP52; source: E. coli BL21(DE3), purified (Ni-NTA, SEC)

Experiments:
GST-Glmn (Glomulin) [1] = molecular target: T1, GST-Glmn (Glomulin); assay: FRET
GST-Glmn (Glomulin) [2] = molecular target: T1, GST-Glmn (Glomulin); assay: FRET
GST-Glmn (Glomulin) [3] = molecular target: T2, GST-Glmn (Glomulin); assay: AlphaScreen or HTRF; competitive HTRF: unlabelled FKBP titrated against 30 nM FKBP51FK1-5-MF and 30 nM GST-Glmn with Anti GST-Tb cryptate; 20 mM HEPES, 5% glycerol, 20 mM NaCl, 10 mM DTT, pH 8.0; room temperature, 1 h; conditions: both partners purified
GST-Glmn (Glomulin) [4] = molecular target: T1, GST-Glmn (Glomulin); assay: FRET

Binder | IC50 (GST-Glmn (Glomulin) [1]) [nM] | IC50 (GST-Glmn (Glomulin) [2]) [nM] | also measured
B1 | 380 | 372 | 
B2 |  | 96 | fold difference in competition between full-length protein and the isolated FK506-binding domain (GST-Glmn (Glomulin) [3]): 4 fold
B3 |  |  | IC50 (GST-Glmn (Glomulin) [4]): 15600 nM
B4 | 880 |  | 
B5 | 383 |  | 
B6 |  | 362 | 
B7 |  |  | fold better competition than its FK1 domain (GST-Glmn (Glomulin) [3]): ~19 fold
